Measured values: article PMC7352597

Key:
[1] = molecular target: T1, RL2 (recombinant Lactaptin 2), the recombinant fragment of human κ-Casein (human), P07498; test: cellular fractionation, SDS-PAGE and Western Blot; MDA-MB-231 cells stimulated with 100 µg/mL RL2; fractions for cytoplasm, nucleus and mitochondria; RL2 monomer and dimer bands detected by Western Blot; conditions: remark: other sources report otherwise
T1 chain: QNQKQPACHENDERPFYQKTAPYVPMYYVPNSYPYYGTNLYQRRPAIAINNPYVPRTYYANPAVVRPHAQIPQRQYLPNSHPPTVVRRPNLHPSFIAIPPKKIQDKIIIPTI

[2] = molecular target: T1, RL2 (recombinant Lactaptin 2), the …; test: SDS-PAGE and Western Blot of cell lysates; MDA-MB-231 cells treated with 200 µg/mL RL2 for indicated times, extracellular RL2 washed off; RL2 monomer and dimer bands detected in lysates with anti-κ-Casein antibody; SDS-PAGE under reducing conditions; conditions: remark: other sources report otherwise

stoichiometry N [1]: 2 | stoichiometry N [2]: 2
B1: RL2 (recombinant Lactaptin 2), the recombinant fragment of human κ-Casein, P07498 23-134 (domain or fragment)
chain: T1 chain
